# Assays:
# [1] = tested on: Panc02 pancreas tumor cells; assay: Panc02 pancreas tumor model, survival; type: in vivo, mice; conditions: 160 ng every other day intraperitoneally for 20 days, starting 4 hours post-implantation
# Method: Mice were anesthetized with isoflurane, and Panc02 pancreas tumor cells were gently injected in pancreas of mice. Two million cells (2×10^6 cells) were injected per mouse for Panc02 tumor model. Starting 4 hours post-implantation, 160 ng of free Taxol or MHA112-taxol were administered every other day intraperitoneally for 20 days. Survival was monitored every day.
# (§1) Glutaric anhydride (100 mg, Sigma-Aldrich) and taxol (33 mg, LC laboratories) were prepared in a 4 mL vial dried under high vacuum for 24 hours and dissolved in 1 mL of pyridine. The solution was stirred at room temperature under Ar atmosphere for 2 hours. The reaction was quenched by removal of solvent under high vacuum for 2 hours. 2′-Glutaryl taxol was purified by a reversed phase HPLC (Phenomenex Luna 5 μm C18 250×10.0 mm, flow rate 2 mL/min, UV 250 nm detection) with a gradient solvent system (15% to 75% ACN/H2O with 0.1% formic acid for 40 minutes). 2′-glutaryl taxol (0.2 mg) dissolved in DMSO (Thermo Scientific Fisher) was activated with 1-ethyl-3-(3-dimethylaminopropyl)carbodiimide hydrochloride (EDC, 0.4 mg, Sigma-Aldrich) and Sulfo-NHS (N-hydroxysulfosuccinimide) (1.1 mg, Thermo Scientific Fisher) for 15 minutes at room temperature in MES buffer (pH 6.0, Thermo Scientific Fisher) (final solution; ˜1 mL in 10% DMSO). The EDC was quenched by 2-mercaptoethanol (1.4 μL, Sigma-Aldrich) for 10 min. […]
# [2] = tested on: 4T1 tumor cell lines; assay: 4T1 breast tumor liver portal vein metastasis model, survival; type: in vivo, mouse; conditions: 160 ng every other day intraperitoneally for 20 days, starting 4 hours post-implantation
# Method: To investigate the effect of MHA112-Taxol on tumor metastasis, 4T1 tumor cell lines were gently injected into the portal vein (1×10^4 cells per mouse) of mouse liver. Starting 4 hours post-implantation, 160 ng of free Taxol or MHA112-taxol were administered every other day intraperitoneally for 20 days. Survival was monitored every day.
# as §1
# [3] = tested on: 4T1 tumor-draining lymph nodes (TDLNs); assay: Immunostaining of 4T1 tumor-draining lymph nodes (TDLNs); type: in vivo, mice; conditions: 4T1 TDLNs, fluorescence micrographs
# Text: Thus, the effect of the LN delivery of MHA112 in the tumor population in the LN was investigated. The extent of MHA112's ability to restore the overall structure of LN was also investigated. […] 4T1 tumor-draining lymph nodes (TDLNs) were cut by cryo-sectioning and stained with anti-HEV (sc-19602, SCBT), anti-LYVE1 (ab14917, Abcam), anti-Pan-Cytokeratin (C2931, Sigma), anti-collagen I (ab34710, Abcam), anti-collagen IV (ab6586, Abcam), and anti-laminin (ab11575, Abcam). […] The stained tissue sections were visualized using an EVOS™ FL Auto 2 Imaging System. […] The structure changes of TDLNs was also examined.
# [4] = tested on: 4T1 breast tumor cells; assay: 4T1 breast tumor growth model; type: in vivo, BALB/c-WT mice; conditions: equal to 160 ng free taxol every two days; n=12
# Method: Mice were anesthetized with isoflurane and underwent subcutaneous injection with 4T1 breast tumor cells in the mammary glands (1×10^5 cells per mouse). Starting at 9 days post-implantation, free Taxol or MHA112-Taxol were administered every other day intraperitoneally for 24 days. Tumor growth was monitored two times per week by digital caliper.
# [5] = tested on: high endothelial venules (HEVs) of mice lymph nodes (LNs); assay: Immunofluorescence staining of HEVs in mice lymph node sections; type: binding; conditions: hybridoma supernatant
# Text: (§2) Two of GlcNAc6ST1/2/4 triple knock-out (KO) mice, which lack the peripheral lymph node vascular addressin (PNAd), were immunized with Chinese hamster ovary (CHO) cell lines expressing CD34 decorated with sialyl Lewis^X (sLeX)-type glycans. MHA112 single hybridoma clone was identified by HEV immunofluorescence staining. The supernatant of MHA112 hybridoma culture was collected and used to stain mice lymph nodes (LNs) and human tonsil section.
# (§3) Two of GlcNAc6ST1/2/4 triple KO mice, which lack the PNAd, were immunized with CHO cell lines expressing CD34 decorated with sLeX-type glycans. After the 3rd immunization, mice were sacrificed for hybridoma. Around 500 single clones were screened by HEV staining. Monoclonal antibody MHA112 against mice and human HEV was identified.
# (§4) Fresh LNs were embedded in tissue-freezing medium. Cryostat sections (8 μm thick) were cut for imaging by fluorescence confocal microscopy. MHA112 was used for tissue staining as primary antibody. Alexa Fluor 488-conjugated anti-mouse IgM was used as secondary antibody. DAPI was used to stain the cell nuclei.
# [6] = tested on: CHO cells expressing PNAd (CHO-PNAd); assay: Cell-based ELISA binding affinity
# Method: To compare the affinity of MHA112 with MECA79, cell-based ELISA was performed. CHO cells expressing PNAd (CHO-PNAd) (2×10^4) were coated onto 96-well plates and incubated overnight at 37° C. After five washes with phosphate buffered saline (PBS), the plates were fixed with 1% paraformaldehyde (PFA) and blocked with 3% bovine serum albumin (BSA). MECA79 and MHA112 were serially diluted from 1 ng/ml to 300 μg/ml. After five washes in PBST, horseradish peroxidase-(HRP-)conjugated goat anti-mouse and anti-rat secondary antibodies were added at a 1:10,000 dilution and incubated for 1 hour at room temperature. Binding was detected with the addition of TMB (3,3′,5,5′-tetramethylbenzidine) substrate, and the reaction was stopped by adding TMB Stop Solution (N600, Thermo Scientific). Absorbance signals were read at 450 nm.
# [7] = tested on: high endothelial venules (HEVs) of human tonsil; assay: Immunofluorescence staining of HEVs in human tonsil section; type: binding; conditions: hybridoma supernatant
# Text: as §2, §3, §4
# [8] = tested on: T cells homing to LNs; assay: Blocking of labeled T cell homing to LNs (flow cytometry); type: in vivo, C57BL/6 mice; conditions: 200 μg i.p. 2 hours before T cell injection, 19 hours after transfer
# Method: To test whether MHA112 mAb can block T cells homing to LNs in vivo, T cells were labeled with fluorescein isothiocyanate (FITC) florescence dye and transferred into naïve mice, and their distribution assessed 19 hours later. MHA112 (anti-HEVs) reduced the number of transferred T cells that entered Axillary (Axi), Inguinal (Ing) and Brachial (Bra) LN by over 25% (FIG. 4). […] Labeled T cells that entered spleen were not changed in three groups (FIG. 4).
# Spleens were harvested from three C57BL/6 mice. Single cell suspensions were prepared, and cells were positively enriched for T cells with MACS reagents and columns (Miltenyi Biotech, Bergisch Gladbach, Germany) according to the manufacturer's instructions. For injection, T cells were labeled with CellTracker Green (Thermo Fisher) and resuspended in sterile saline, and 5 million T cells were injected in 100 μl each mouse. Blocking antibodies MHA112 and MECA79 were administered intraperitoneally (i.p.) at 200 μg in 200 μl per mouse 2 hours before T cell injection. 19 hours after transfer, mice were euthanized and LNs were processed for flow cytometry.
Molecule,median survival time (MST) [1],median survival time (MST) [2],expansion of HEVs and lymphatics (LYVE1) in TDLNs [3],growth of 4T1 mouse breast tumors versus control group treated with PBS [4],staining of HEVs structure [5],binding affinity higher than MECA79 [6],"Kd ([6]; fitting curves, absorbance 450 nm)",staining of HEVs structure [7],"reduction of number of transferred T cells that entered Axillary, Inguinal and Brachial LN [8]",reduction of number of T cells that entered mesenteric LNs ([8]; of PBS controls)
"CC(=O)O[C@H]1C(=O)[C@@]2(C)[C@H]([C@H](OC(=O)c3ccccc3)[C@]3(O)C[C@H](OC(=O)[C@H](O)[C@@H](NC(=O)c4ccccc4)c4ccccc4)C(C)=C1C3(C)C)[C@]1(OC(C)=O)CO[C@@H]1C[C@@H]2O [free Taxol, taxol]",32 days,37 days,expanded,significantly slower growth,,,,,,
"MHA112: anti-PNAd monoclonal antibody, mouse IgM, VH SEQ ID NO:2 and VL SEQ ID NO:7 (antibody, V domains shown, mouse IgM constant regions; MHA112 Heavy chain; MHA112 Light chain) VH: QVQLKESGPGLVAPSQSLSITCTVSGFSLTSYGVDWVRQPPGKGLEWLGVIWGGGSTNYNSALMSRLSISKDNSKSQVFLKMNSLQTDDTAMYYCAKHSKGGYFDVWGTGTTVTVSS VL: EIVLTQSPAITAASLGQKVTITCSASSSVSYMHWYQQKSGTSPKPWIYEISKLASGVPARFSGSGSGTSYSLTISSMEAEDAAIYYCQQWNYPLITFGAGTKLELK",,,,,stained,30%,0.97 nM,stained,over 25%,around 12%
